The chains are these.
B1: LINE1-full (parent)
chain: UACGUAGGUGGUUUUCCCCUGAUAGUGCUAAGGGGGCCUGGAAGUUUGGACUGGGCAGAGCUCAACACAGCGUGGCAAAGUGGCUGUGGCUAGACUGCCUCUCUGGAUUCCUCGUCACUCAGCAGGGCAUCUCUGAGAGAAAUGCC

In this data set the parent is B1. Nature of the data set: self-cleavage, relative activity (ratio to wild type); higher = more cleavage; in vitro, sequencing; the parent is a self-cleaving ribozyme.
As to A24G G55U, the self-cleavage turned out to be 0.26.
Take A24G G55A: the self-cleavage amounted to 0.3.
Next, A22U A117G: 0.65; A22U U115C: 1.77; A24G G74A: 0.93.
With A24G A92C, the self-cleavage was found to be 0.
Next, A24G A92G: 0.2; A24U A57G: 0.56.
As to A22U G34A, the self-cleavage stood at 0.82.
Consider A22U A129G, for which the self-cleavage worked out at 2.09.
Next, A22G A78C: 1.45; U23A A64U: 0.34.
Under U23A A64G stands 0.23.
Under A24U A142C stands 1.54; under A24U A142G, 1.29; under A22G G139A, 1.82.
As for A22U G72A, the self-cleavage is 1.27.
Next, U23A U46A: 0.6.
For the variant U23A U39A, the self-cleavage amounted to 1.42.
Regarding U23C C63U, the self-cleavage was determined as 0.35.
As for U23C G27A, the self-cleavage was determined as 1.8.
In the case of A22G A77C, the self-cleavage worked out at 1.09.
For A22G A77G, the self-cleavage stood at 1.77.
Next, A22G A77U: 0.79; A24G G53A: 1.8.
Under A24U G40A stands 0.71; under A24G A67U, 0.24; under A22G A92C, 0.12.
As to A22U U26A, the self-cleavage worked out at 0.5.
Under A24G U143A stands 0.72; under U23G G122U, 1.17; under U23A A92G, 0.12.
Under U23C C133A stands 1.09; under A24G A94U, 0.49; under A24G A94G, 0.31.
Take A24C U73A: the self-cleavage came to 0.46.
Take A24U A67G: the self-cleavage is 0.43.
In the case of A24G U85C, the self-cleavage came out at 0.
In the case of U23A A31C, the self-cleavage was determined as 1.31.
Turning to U23C U130C, the self-cleavage came to 1.76.
Take A22U G106U: the self-cleavage was 1.72.
On to U23A U85C, for which the self-cleavage is 0.28.
Next, A24G U26A: 0.84; A24G A141G: 1.22; U23A A77U: 1.24.
A22U U119G: the self-cleavage came out at 2.23.
Under U23C U143C stands 1.41; under A22G U39C, 1.14.
Under A22G U39A stands 1.72.
Under A22U G114A stands 1.44.
For A22G G89A, the self-cleavage was 0.09.
A22G U62C: the self-cleavage came to 0.09.
Next, A24U A121G: 1.08; U23A U73A: 1.16; A22U U102A: 1.41.
Next, U23A U26C: 0.99.
U23G U143C: the self-cleavage was 0.
For the variant A24G U29C, the self-cleavage amounted to 1.41.
In the case of U23C G35A, the self-cleavage stood at 1.4.
With A22G U104A, the self-cleavage worked out at 1.38.
As to A22G U104C, the self-cleavage came out at 1.26.
Next, A24U C110A: 1.1; A22G U134A: 1.03.
Next, A22G U134C: 0.96; A22U A30G: 1.98; A22U U85A: 0.08.
Next, A24G C63A: 0; U23C U46C: 1.52; U23C U46A: 0.92.
With A24G G35U, the self-cleavage was 1.15.
A24U G83A: the self-cleavage came out at 1.07.
For A22U G40U, the self-cleavage was 0.87.
In the case of U23C A124G, the self-cleavage was found to be 1.52.
Under A24G A64G stands 0.53; under A24G A64C, 0.38; under A22U G126A, 1.5.
For U23C G93U, the self-cleavage was 0.04.
In the case of A22G U115C, the self-cleavage came out at 1.18.
For the variant A22G U115A, the self-cleavage was 1.52.
Next, U23G A140G: 1.27; A24G A31U: 1.37; A22G U91A: 0.71.
Under A22G U91C stands 0.65; under A24G A50G, 1.16; under A22G G80U, 1.
With U23C G55U, the self-cleavage stood at 0.22.
Regarding A24G A69G, the self-cleavage was determined as 0.92.
Next, U23C U87C: 0.25; U23C G72U: 0; A22G A121U: 1.
Under A22G A121G stands 0.95.
In the case of A24U A117C, the self-cleavage was 1.6.
Under U23A A50G stands 1.25.
As to U23C C131U, the self-cleavage was 1.84.
Under A22U G55A stands 0.37; under A22G A129U, 0.67; under A22G A129G, 1.45.
Regarding A24G A129C, the self-cleavage was 0.71.
With A24G A129G, the self-cleavage amounted to 1.19.
Under A22G U46C stands 1.04; under A22U C123A, 1.17.
Under A22G C61U stands 0.07; under A22G U52C, 1.56.
With A22G U52G, the self-cleavage came to 0.92.
Regarding A24G U46A, the self-cleavage worked out at 0.9.
For U23C A69U, the self-cleavage is 0.02.
Under U23C A42U stands 1.22.
Next, A22G C99U: 0.23; A22U A77U: 0.62.
For the variant A22U A77G, the self-cleavage came out at 2.23.
Under A24G A79U stands 1.59.
A24G A79G: the self-cleavage was found to be 0.95.
In the case of A22G U81A, the self-cleavage was 1.67.
On to U23A A65U, for which the self-cleavage is 0.53.
Next, A24G U134C: 1.26.
Next, A24G U134A: 0.99.
Next, A22U A50U: 0.39; U23A U52A: 1.37; U23C A24C: 1.09.
As for A24U A94G, the self-cleavage is 0.47.
On to A24C A124G, for which the self-cleavage was 0.98.
On to U23C U119C, for which the self-cleavage came out at 1.61.
On to U23C U119A, for which the self-cleavage stood at 1.17.
Next, U23A A67U: 0.19; A22G A138G: 1.25; U23C A31U: 0.77.
Under A24C A67G stands 0.42; under A22G G122C, 1.31.
Under A22G G122A stands 0; under U23C U100C, 1.79; under U23C U100A, 1.3.
As to A22U A42G, the self-cleavage is 1.54.
Under U23C A65C stands 0; under A24G C37U, 0.83.
Under A24G C37A stands 1.07; under A22G A69C, 0; under A24G A107U, 1.05.
Under A22G U96A stands 0.13.
Turning to U23C A79G, the self-cleavage stood at 1.4.
Under U23C A79U stands 2.06; under A22G G33U, 1.25; under A22U C38U, 1.18.
Next, A24G C111A: 1.74; U23C G83A: 1.02; A22G G40A: 0.55.
Under A24G G114C stands 1.7.
Regarding U23C A94U, the self-cleavage is 0.48.
Next, U23C U112A: 1.37; A22G G36A: 1.36.
Regarding A22G G44A, the self-cleavage is 1.25.
Turning to A24G G32A, the self-cleavage is 1.13.
In the case of A22G U73A, the self-cleavage turned out to be 1.29.
In the case of A22G U45A, the self-cleavage came out at 0.94.
Under A22G U45G stands 0.82; under U23C G34U, 1.44.
Under U23C G34A stands 1.26.
Under A24G C98A stands 0.13; under U23C U26C, 1.29.
For the variant A24U G33A, the self-cleavage came out at 1.07.
With A22U C103U, the self-cleavage came to 1.42.
For U23C A141G, the self-cleavage stood at 1.4.
Under A24U C145U stands 1.4; under U23C C61A, 0.06; under U23C A67U, 0.18.
Under A22U U108C stands 1.19; under A22U A67G, 0.41; under A22U U39C, 1.2.

(Values after the RNAGym collection of RNA variant scans (doi:10.7554/elife.90254).)
